Where a chain is given by its changes, count along the chain named. Blank lines part the entries; values can stand above or below the binder they belong to.
Assays:
[1] = biological target: T1, human FcγRIIb extracellular domain with C-terminal His-tag (human, UniProt P31994 43-217); assay: SPR (BIACORE), antibody captured, FcgR analyte
T1 construct: also called human FcgRIIb; not shown: His-tag added to the C-terminus
T1 sequence: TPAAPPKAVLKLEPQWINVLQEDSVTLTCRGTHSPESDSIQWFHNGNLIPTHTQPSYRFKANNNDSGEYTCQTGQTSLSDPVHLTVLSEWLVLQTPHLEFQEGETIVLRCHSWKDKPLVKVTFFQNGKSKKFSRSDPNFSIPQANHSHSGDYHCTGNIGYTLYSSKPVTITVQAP

[2] = biological target: T2, cynomolgus monkey FcγRIIa3 extracellular domain with C-terminal His-tag (cynomolgus monkey); assay: SPR (BIACORE), antibody captured, FcgR analyte
T2 construct: also called cyno FcgRIIa3; cynoFcγRIIa3; not shown: His-tag added to the C-terminus
T2 chain: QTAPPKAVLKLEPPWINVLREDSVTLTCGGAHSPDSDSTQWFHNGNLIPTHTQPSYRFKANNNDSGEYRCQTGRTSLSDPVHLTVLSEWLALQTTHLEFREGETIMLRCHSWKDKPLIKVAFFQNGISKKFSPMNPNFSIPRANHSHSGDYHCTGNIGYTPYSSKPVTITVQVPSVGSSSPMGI

[3] = biological target: T3, cynomolgus monkey FcγRIIIaS extracellular domain with C-terminal His-tag (cynomolgus monkey, UniProt A3RFZ7 21-206 (rhesus entry)); assay: SPR (BIACORE), antibody captured, FcgR analyte
T3 construct: also called cyno FcgRIIIaS; cynoFcγRIIIaS; not shown: His-tag added to the C-terminus

[4] = biological target: T3, cynomolgus monkey FcγRIIIaS …; assay: SPR (BIACORE); KD of SG1 / KD of variant
[5] = biological target: T4, cynomolgus monkey FcγRIIa3 extracellular domain with C-terminal His-tag (cynomolgus monkey); assay: SPR Biacore, antibody captured, FcgR analyte
T4 construct: also called cyno FcgRIIa3; cynoFcγRIIa3; not shown: His-tag added to C-terminus
T4 chain: T2 chain

[6] = biological target: T5, cynomolgus monkey FcγRIIIaS extracellular domain with C-terminal His-tag (cynomolgus monkey, UniProt A3RFZ7 21-206 (rhesus entry)); assay: SPR Biacore, antibody captured, FcgR analyte
T5 construct: also called cyno FcgRIIIaS; cynoFcγRIIIaS; not shown: His-tag added to C-terminus

[7] = biological target: T6, human FcγRIIaR extracellular domain with C-terminal His-tag (human, UniProt P12318 34-217); assay: SPR Biacore, antibody captured, FcgR analyte
T6 construct: also called human FcgRIIaR; FcγRIIa (type R); not shown: His-tag added to C-terminus
T6 chain: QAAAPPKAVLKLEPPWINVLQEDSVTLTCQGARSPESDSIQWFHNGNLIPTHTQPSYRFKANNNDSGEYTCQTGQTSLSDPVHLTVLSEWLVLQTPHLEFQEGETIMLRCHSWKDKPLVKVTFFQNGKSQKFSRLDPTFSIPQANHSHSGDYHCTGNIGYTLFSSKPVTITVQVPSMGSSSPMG

[8] = biological target: T7, cynomolgus monkey FcγRIIb extracellular domain with C-terminal His-tag (cynomolgus monkey); assay: SPR Biacore, antibody captured, FcgR analyte
T7 construct: also called cyno FcgRIIb; cynoFcγRIIb; not shown: His-tag added to C-terminus
T7 chain: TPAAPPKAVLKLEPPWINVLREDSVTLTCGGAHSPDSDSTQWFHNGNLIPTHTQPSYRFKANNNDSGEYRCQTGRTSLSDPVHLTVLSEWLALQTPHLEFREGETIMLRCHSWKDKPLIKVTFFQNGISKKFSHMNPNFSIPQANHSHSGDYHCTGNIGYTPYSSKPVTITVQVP

[9] = biological target: T8, human FcγRIIIaV extracellular domain with C-terminal His-tag (human, UniProt P08637 17-208); assay: SPR Biacore, antibody captured, FcgR analyte
T8 construct: also called human FcgRIIIaV; not shown: His-tag added to C-terminus
T8 sequence (P08637 17-208 F176V): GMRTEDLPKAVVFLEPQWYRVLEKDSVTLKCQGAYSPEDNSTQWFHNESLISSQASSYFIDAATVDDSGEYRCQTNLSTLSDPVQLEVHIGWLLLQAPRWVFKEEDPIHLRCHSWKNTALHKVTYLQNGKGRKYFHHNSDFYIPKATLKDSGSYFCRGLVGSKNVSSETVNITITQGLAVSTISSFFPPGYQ

[10] = biological target: T9, human FcγRIIaH extracellular domain with C-terminal His-tag (human, UniProt P12318 34-217); assay: SPR (BIACORE), antibody captured, FcgR analyte
T9 construct: also called human FcgRIIaH; FcγRIIa type H; not shown: His-tag added to the C-terminus
T9 sequence: T6 chain with R134H

[11] = biological target: T10, human FcγRIIaR extracellular domain with C-terminal His-tag (human, UniProt P12318 34-217); assay: SPR (BIACORE), antibody captured, FcgR analyte
T10 construct: also called human FcgRIIaR; FcγRIIa type R; not shown: His-tag added to the C-terminus
T10 chain: T6 chain

[12] = biological target: T11, human FcγRIIb extracellular domain with C-terminal His-tag (human, UniProt P31994 43-217); assay: SPR Biacore, antibody captured, FcgR analyte
T11 construct: also called human FcgRIIb; not shown: His-tag added to C-terminus
T11 sequence: T1 sequence

[13] = biological target: T12, cynomolgus monkey FcγRIIa2 extracellular domain with C-terminal His-tag (cynomolgus monkey); assay: SPR Biacore, antibody captured, FcgR analyte
T12 construct: also called cyno FcgRIIa2; cynoFcγRIIa2; not shown: His-tag added to C-terminus
T12 chain: T2 chain with I127K, K130N, P133H, R142Q

[14] = biological target: T13, human FcγRIIIaV extracellular domain with C-terminal His-tag (human, UniProt P08637 17-208); assay: SPR (BIACORE), antibody captured, FcgR analyte
T13 construct: also called human FcgRIIIaV; not shown: His-tag added to the C-terminus
T13 sequence (P08637 17-208 F176V): as above

Kd [1]: 320 nM | Kd [2]: 7600 nM | Kd [3]: 850 nM | KD fold (SG1 = 1) [4]: 0.42 fold
B1: M103205H795-MY115/M103202L889-SK1 (antibody, human IgG1, kappa, name in EU numbering)
heavy: QVTLKESGPVLVKPTETLTLTCTVSGIDLSHDDISWVRQAPGKGLEWVGIISYAGSTYYASWAKGRLTISKDTSKNQVVLTMTNMDPVDTATYYCARGVPAYSHGGDLWGQGTLVTVSSASTKGPSVFPLAPSSKSTSGGTAALGCLVKDYFPEPVTVSWNSGALTSGVHTFPAVLQSSGLYSLSSVVTVPSSSLGTQTYICNVNHKPSNTKVDKKVEPKSCDKTHTCPPCPAPELLNGPSVFLFPPKPKDTLMISRTPEVTCVVVDVAEEDPEVKFNWYVDGVEVHNAKTKPREEQYNSTYRVVSVLTVLHQDWLNGKEYKCKVSNKALPAPIEKTISKAKGQPREPQVYTLPPSREEMTKNQVSLTCLVKGFYPSDIAVEWESNGQPENNYKTTPMVLDSDGSFFLYSKLTVDKSRWQQGNVFSCSVMHEALHNHYTQKSLSLSP
light: DIVMTQSPATLSLSPGERATLSCTSSQSVYHANWLSWFQQKPGQPPKLLIYWASTLAYGVPSRFSGSGSGTDFTLTISSLQPEDAATYYCAGGYGGGRYAFGQGTKVEIKRTVAAPSVFIFPPSDEQLKSGTASVVCLLNNFYPREAKVQWKVDNALQSGNSQESVTEQDSKDSTYSLSSTLTLSKADYEKHKVYACEVTHQGLSSPVTKSFNRGEC
notes: Fc variant of MS1032LO06-SG1; positions in EU numbering

Kd [8]: 12 nM | Kd [5]: 1000 nM | KD fold (SG1 = 1) [6]: 0.08 fold | Kd [6]: 4500 nM | Kd [7]: 2800 nM
B5: M103205H795-MY168/M103202L889-SK1 (antibody, human IgG1, kappa, name in EU numbering)
heavy: B1 heavy with A269S, M398A
light: B1 light
notes: EU numbering

Kd [10]: 830 nM | Kd [1]: 1100 nM | Kd [2]: 6700 nM | Kd [3]: 28 nM | Kd [11]: 2100 nM
B6: M103205H795-MY208/M103202L889-SK1 (antibody, human IgG1, kappa, name in EU numbering)
heavy: B1 heavy with A269S, E270D, Q297L, M398P
light: B1 light
notes: as for B1

KD fold (SG1 = 1) [8]: 3.9 fold | KD fold (SG1 = 1) [9]: 0.03 fold | KD fold (SG1 = 1) [6]: 0.04 fold
B8: M103205H795-MY440/M103202L889-SK1 (antibody, human IgG1, kappa, name in EU numbering)
heavy: B1 heavy with L237W, A269S, E270D, Q297L, A332K, M398P
light: B1 light
notes: substitutions in EU numbering, introduced into M103205H795-SG1

KD fold (SG1 = 1) [9]: 0.09 fold | KD fold (SG1 = 1) [6]: 0.08 fold
B14: M103205H795-MY200/M103202L889-SK1 (antibody)
heavy: B1 heavy with S241V, A269S, A332K, M398P
light: B1 light

Kd [10]: 1300 nM | Kd [1]: 1500 nM | Kd [2]: 6900 nM | Kd [3]: 4100 nM
B15: M103205H795-MY207/M103202L889-SK1 (antibody, human IgG1, kappa, name in EU numbering)
heavy: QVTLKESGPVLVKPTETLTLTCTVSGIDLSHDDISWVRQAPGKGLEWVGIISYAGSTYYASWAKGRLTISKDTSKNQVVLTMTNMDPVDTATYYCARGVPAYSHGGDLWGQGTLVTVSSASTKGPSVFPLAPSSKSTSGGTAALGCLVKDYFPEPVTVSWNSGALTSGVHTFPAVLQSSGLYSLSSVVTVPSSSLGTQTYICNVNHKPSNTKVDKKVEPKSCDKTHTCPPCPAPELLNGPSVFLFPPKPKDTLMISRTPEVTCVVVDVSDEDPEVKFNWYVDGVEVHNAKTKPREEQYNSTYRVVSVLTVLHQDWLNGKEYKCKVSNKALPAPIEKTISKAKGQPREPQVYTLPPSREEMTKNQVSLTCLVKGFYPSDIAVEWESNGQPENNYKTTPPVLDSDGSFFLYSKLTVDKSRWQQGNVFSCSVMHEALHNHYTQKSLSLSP
light: B1 light
notes: as for B1

Second part, the binder before the results:

B2: M103205H795-MY175/M103202L889-SK1 (antibody, human IgG1, kappa, name in EU numbering)
heavy: B1 heavy with A269S, M398K
light: B1 light
notes: EU numbering
KD fold (SG1 = 1) [5]: 2.3 fold | KD fold (SG1 = 1) [6]: 0.14 fold | Kd [6]: 2600 nM | Kd [7]: 1500 nM

B3: M103205H795-MY052/M103202L889-SK1 (antibody, human IgG1, kappa, name in EU numbering)
heavy: B1 heavy with A269S
light: B1 light
notes: as for B8
KD fold (SG1 = 1) [8]: 3.5 fold | KD fold (SG1 = 1) [6]: 0.24 fold | Kd [6]: 1500 nM | KD fold (SG1 = 1) [7]: 0.1 fold

B4: M103205H795-MY209/M103202L889-SK1 (antibody, human IgG1, kappa, name in EU numbering)
heavy: B1 heavy with A269S, E270D, Q297L, K328T, A332K, M398P
light: B1 light
notes: as for B8
KD fold (SG1 = 1) [9]: 0.09 fold

B7: M103205H795-MY212/M103202L889-SK1 (antibody, human IgG1, kappa, name in EU numbering)
heavy: B1 heavy with S241V, A269S, E270D, Q297L, K328T, A332K, M398P
light: B1 light
notes: as for B8
KD fold (SG1 = 1) [12]: 7.5 fold | KD fold (SG1 = 1) [9]: 0.17 fold | KD fold (SG1 = 1) [6]: 0.14 fold

B9: M103205H795-MY171/M103202L889-SK1 (antibody, human IgG1, kappa, name in EU numbering)
heavy: B1 heavy with A269S, M398F
light: B1 light
notes: EU numbering
KD fold (SG1 = 1) [8]: 1.5 fold | Kd [8]: 9800 nM | Kd [13]: 2300 nM | Kd [12]: 1200 nM | KD fold (SG1 = 1) [5]: 1.5 fold | Kd [5]: 9200 nM | KD fold (SG1 = 1) [6]: 0.11 fold | Kd [6]: 3300 nM | Kd [7]: 2300 nM

B10: M103205H795-MY182/M103202L889-SK1 (antibody, human IgG1, kappa, name in EU numbering)
heavy: B1 heavy with A269S, M398V
light: B1 light
notes: EU numbering
KD fold (SG1 = 1) [9]: 0.17 fold | KD fold (SG1 = 1) [6]: 0.1 fold | Kd [6]: 3600 nM

B11: M103205H795-MY434/M103202L889-SK1 (antibody, human IgG1, kappa, name in EU numbering)
heavy: B1 heavy with L237W, A269S, E270D, A332K, M398P
light: B1 light
notes: as for B8
KD fold (SG1 = 1) [12]: 3.5 fold | KD fold (SG1 = 1) [6]: 0.03 fold | KD fold (SG1 = 1) [7]: 0.8 fold

B12: M103205H795-MY204/M103202L889-SK1 (antibody, human IgG1, kappa, name in EU numbering)
heavy: B1 heavy with S241V, A269S, Q297L, A332K, M398P
light: B1 light
notes: as for B1
Kd [1]: 1500 nM | Kd [14]: 11000 nM | Kd [3]: 3500 nM

B13: M103205H795-MY183/M103202L889-SK1 (antibody, human IgG1, kappa, name in EU numbering)
heavy: B1 heavy with A269S, M398W
light: B1 light
notes: EU numbering
KD fold (SG1 = 1) [13]: 2.6 fold | KD fold (SG1 = 1) [12]: 4.7 fold | Kd [9]: 7700 nM | KD fold (SG1 = 1) [6]: 0.1 fold | Kd [6]: 3500 nM

From US20250076311A1 (Chugai, published 2025)
